Test results published in the supplement of paper PMC11136658.

Tested on: peptide library, one residue held at a place counted from the Y acceptor
Assay: relative phosphorylation of the sub-library (ratio to the mean residue at this position); higher = residue favoured
In short: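 In 384-well plates, purified recombinant kinases were incubated for 90 min with 50 μM ATP containing γ-32P-ATP and biotinylated Tyr-centred peptide libraries, each mixture fixing one residue at a single position between −5 and +5. After capture on streptavidin membranes and rinsing, peptides were quantified by phosphorimaging with ImageQuant. Per-position intensities were scaled to the sum of the 18 (Ser/Thr-free library: 16) randomized residues, then multiplied by that number.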

PTK2B, construct: aa360-690, human, sequence (Q14289 360-690, looked up): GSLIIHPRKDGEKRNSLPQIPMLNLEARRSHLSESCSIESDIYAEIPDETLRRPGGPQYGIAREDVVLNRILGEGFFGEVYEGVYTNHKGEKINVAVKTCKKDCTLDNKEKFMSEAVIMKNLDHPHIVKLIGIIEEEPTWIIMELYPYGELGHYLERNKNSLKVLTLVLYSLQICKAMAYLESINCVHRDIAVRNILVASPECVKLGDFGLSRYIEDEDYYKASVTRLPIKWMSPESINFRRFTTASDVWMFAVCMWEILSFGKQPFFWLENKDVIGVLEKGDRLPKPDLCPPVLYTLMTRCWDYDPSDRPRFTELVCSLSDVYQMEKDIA

PTK2B, construct: aa360-690, human (from UniProt Q14289)
relative phosphorylation
Conditions	at +1	at +2	at +3	at +4	at +5	at -1	at -2	at -3	at -4	at -5
A fixed	2.28	0.739	0.756	0.904	1.08	0.722	1.03	1.03	1.15	1.03
D fixed	1.55	0.792	0.312	0.86	0.799	0.478	1.34	1.28	0.976	0.952
E fixed	2.04	1.29	0.341	0.961	0.887	0.489	1.54	1.52	0.85	0.801
F fixed	0.834	1.85	1.42	1.04	0.992	1.06	0.634	0.986	1.29	1.07
G fixed	1.1	0.402	0.58	1.02	1.31	0.297	1.06	1.07	1.23	1.14
H fixed	0.593	0.657	0.685	1.05	0.966	0.719	0.953	0.965	1.01	1.05
I fixed	1.12	1.56	2.46	0.896	0.903	4.36	1.02	0.657	0.851	0.978
K fixed	0.171	0.444	0.228	0.762	0.731	0.29	0.703	0.866	0.915	1.13
L fixed	0.499	1.68	1.61	0.925	0.92	1.99	1.02	0.816	1.07	1.04
M fixed	0.908	1.13	1.11	1.15	1	0.811	0.729	0.903	0.939	1.08
N fixed	0.297	0.815	0.397	0.711	0.838	0.63	1.13	1.18	0.937	1.02
P fixed	0.374	0.702	2.31	1.08	1.72	0.488	1.15	0.97	1.14	1.01
Q fixed	0.788	0.679	0.365	0.992	0.758	0.443	1.09	0.895	0.918	0.896
R fixed	0.215	0.603	0.298	0.938	0.912	0.374	0.748	0.923	0.969	1.16
S fixed	1.15	0.82	0.669	0.981	1.1	0.534	1.08	1.27	0.927	0.98
T fixed	1.02	0.823	0.794	0.875	1.09	0.935	0.962	1.02	0.679	0.825
V fixed	2.02	1.27	2.28	1.09	0.926	2.67	1.2	0.704	0.86	0.926
W fixed	1.04	1.75	1.4	1.77	1.07	0.714	0.613	0.95	1.3	0.917
pThr fixed	3.7	2.29	0.44	0.84	0.752	0.624	1.09	0.878	0.728	0.817
pTyr fixed	2.13	6.16	0.885	1.48	0.901	1.53	1.17	1.32	0.964	0.94
